The source of these data is PMC11564117, “Control of mitophagy initiation and progression by the TBK1 adaptors NAP1 and SINTBAD” (Nature Structural & Molecular Biology, 2024).

This assay concerns the target T1, SINTBAD–mCherry (UniProt A7MCY6 1-615).
T1 construct: the legend says SINTBAD-mCherry; also called mCherry–SINTBAD; similar to NAP1 TBK1 adaptor; source: Sf9 insect cells, purified (GST-batch protocol); not shown: mCherry, C-terminal, kept
Briefly: microscopy-based bead assay; Figs. 5b, 7d, 7f, Extended Data Fig. 9b: GST–4×Ub on glutathione beads; OPTN (mCherry-tagged or unlabeled) and GFP–TBK1 250 nM; NAP1, MBP–NAP1 or SINTBAD–mCherry 100 nM to 10 µM; unlabeled NDP52 250 nM where indicated; 25 mM Tris-HCl pH 7.4, 150 mM NaCl, 1 mM DTT; Fig. 5b without ATP, Fig. 7f with or without ATP/MgCl2; 30 min; confocal imaging. The note with it: both partners purified.

T1 sequence (A7MCY6 whole entry): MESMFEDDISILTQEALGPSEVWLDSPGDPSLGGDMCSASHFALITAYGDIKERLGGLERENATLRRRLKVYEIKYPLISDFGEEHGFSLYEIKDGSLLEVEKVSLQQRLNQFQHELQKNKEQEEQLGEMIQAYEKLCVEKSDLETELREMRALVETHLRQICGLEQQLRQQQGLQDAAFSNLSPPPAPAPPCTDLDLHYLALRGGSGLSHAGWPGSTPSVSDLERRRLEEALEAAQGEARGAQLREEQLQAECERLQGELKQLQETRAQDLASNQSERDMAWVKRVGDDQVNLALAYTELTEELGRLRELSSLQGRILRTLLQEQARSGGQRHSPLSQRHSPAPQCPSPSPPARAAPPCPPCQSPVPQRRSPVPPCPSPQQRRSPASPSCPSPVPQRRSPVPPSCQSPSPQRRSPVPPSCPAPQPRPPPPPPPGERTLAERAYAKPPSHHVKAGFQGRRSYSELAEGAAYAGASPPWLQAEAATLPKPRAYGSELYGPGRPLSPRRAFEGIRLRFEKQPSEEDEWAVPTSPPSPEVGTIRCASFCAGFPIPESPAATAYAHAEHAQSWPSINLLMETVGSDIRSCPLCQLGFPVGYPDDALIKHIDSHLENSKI

B1: NDP52 (unlabeled) (natural protein, human, UniProt Q13137 1-446, looked up)
chain: MEETIKDPPTSAVLLDHCHFSQVIFNSVEKFYIPGGDVTCHYTFTQHFIPRRKDWIGIFRVGWKTTREYYTFMWVTLPIDLNNKSAKQQEVQFKAYYLPKDDEYYQFCYVDEDGVVRGASIPFQFRPENEEDILVVTTQGEVEEIEQHNKELCKENQELKDSCISLQKQNSDMQAELQKKQEELETLQSINKKLELKVKEQKDYWETELLQLKEQNQKMSSENEKMGIRVDQLQAQLSTQEKEMEKLVQGDQDKTEQLEQLKKENDHLFLSLTEQRKDQKKLEQTVEQMKQNETTAMKKQQELMDENFDLSKRLSENEIICNALQRQKERLEGENDLLKRENSRLLSYMGLDFNSLPYQVPTSDEGGARQNPGLAYGNPYSGIQESSSPSPLSIKKCPICKADDICDHTLEQQQMQPLCFNCPICDKIFPATEKQIFEDHVFCHSL
notes: NDP52 (CALCOCO2), human cDNA in a pGST2 vector with N-terminal GST tag and TEV site; Called 'unlabeled NDP52' in the bead assays; also called nuclear dot protein 52; CALCOCO2; source: E. coli Rosetta pLysS, purified (GST-batch protocol)
Regarding B1, the binding result was “binds”.
